Measured values from the supplement of paper PMC10567573.

B1: NET1 (parent)
chain: RVRPLARVTSLANLISPVRNGAVR
B2: NECAB1 (parent)
chain: FSPNSPQFNVSGPGLLEEDNQWMT

Variants of: B1
Assay: protein stability index of a GFP-peptide fusion (GPS, HEK-293T) (PSI 1-6); higher = more stable
Conditions: c terminus: a fixed tail appended
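Also: lentivirally expressed fusions sorted by FACS into six bins by GFP to DsRed ratio, PSI derived from sequencing read proportions per bin multiplied by bin number.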

First: RVRPLARVTSLANLISPVRNGAVY [R24Y]
Second: RVRPLARVTSLANLISPVRNGAVN [R24N]
The protein stability index of the first is lower: 1.88 for the first, 2.91 for the second.

Going from RVRPLARVTSLANLISPVRNGAVM [R24M] to RVRPLARVTSLANLISPVRNGAVV [R24V], the protein stability index rises from 2.19 to 2.63.

First: RVRPLARVTSLANLISPVRNGAVT [R24T]
Second: RVRPLARVTSLANLISPVRNGAVW [R24W]
The protein stability index of the first is lower: 2.39 for the first, 2.44 for the second.

Compared with RVRPLARVTSLANLISPVRNGAVS [R24S], RVRPLARVTSLANLISPVRNGAVI [R24I] is lower in protein stability index: 2.74 for the first, 2.54 for the second.

Compared with RVRPLARVTSLANLISPVRNGAVG [R24G], RVRPLARVTSLANLISPVRNGAVL [R24L] is lower in protein stability index: 2.93 for the first, 2.2 for the second.

First: RVRPLARVTSLANLISPVRNGAVH [R24H]
Second: RVRPLARVTSLANLISPVRNGAVF [R24F]
The protein stability index of the first is lower: 2.38 for the first, 2.44 for the second.

Compared with RVRPLARVTSLANLISPVRNGAVK [R24K], RVRPLARVTSLANLISPVRNGAVP [R24P] is lower in protein stability index: 3.47 for the first, 2.93 for the second.

In the case of RVRPLARVTSLANLISPVRNGAVQ [R24Q], the protein stability index is reported as 3.37.

Variants of: B2
Assay: as above
Conditions: c terminus: a fixed tail appended

Going from FSPNSPQFNVSGPGLLEEENQWMT [D19E] to FSPNSPQFNVSGPGLLEERNQWMT [D19R], the protein stability index falls from 2.78 to 1.94.

First: FSPNSPQFNVSGPGLLEELNQWMT [D19L]
Second: FSPNSPQFNVSGPGLLEENNQWMT [D19N]
The protein stability index of the first is lower: 2.3 for the first, 2.57 for the second.

First: FSPNSPQFNVSGPGLLEEANQWMT [D19A]
Second: FSPNKPQFNVSGPGLLEEDNQWMT [S5K]
The protein stability index of the first is lower: 2.11 for the first, 2.82 for the second.

Going from FSPNQPQFNVSGPGLLEEDNQWMT [S5Q] to FSPNMPQFNVSGPGLLEEDNQWMT [S5M], the protein stability index falls from 3.7 to 3.66.

First: FSPNRPQFNVSGPGLLEEDNQWMT [S5R]
Second: FSPNFPQFNVSGPGLLEEDNQWMT [S5F]
The protein stability index of the first is higher: 2.78 for the first, 2 for the second.

First: FSPNVPQFNVSGPGLLEEDNQWMT [S5V]
Second: FSPNTPQFNVSGPGLLEEDNQWMT [S5T]
The protein stability index of the first is lower: 2.75 for the first, 2.98 for the second.

Going from FSPNYPQFNVSGPGLLEEDNQWMT [S5Y] to FSPNNPQFNVSGPGLLEEDNQWMT [S5N], the protein stability index rises from 1.94 to 3.03.

Compared with FSPNDPQFNVSGPGLLEEDNQWMT [S5D], FSPNWPQFNVSGPGLLEEDNQWMT [S5W] is lower in protein stability index: 4.04 for the first, 2.27 for the second.

Compared with FSWNSPQFNVSGPGLLEEDNQWMT [P3W], FSANSPQFNVSGPGLLEEDNQWMT [P3A] is higher in protein stability index: 2.04 for the first, 3.26 for the second.

Compared with FSMNSPQFNVSGPGLLEEDNQWMT [P3M], FSQNSPQFNVSGPGLLEEDNQWMT [P3Q] is higher in protein stability index: 3.22 for the first, 3.26 for the second.

First: FSCNSPQFNVSGPGLLEEDNQWMT [P3C]
Second: FSENSPQFNVSGPGLLEEDNQWMT [P3E]
The protein stability index of the first is lower: 2.33 for the first, 3.71 for the second.

First: FSGNSPQFNVSGPGLLEEDNQWMT [P3G]
Second: FSLNSPQFNVSGPGLLEEDNQWMT [P3L]
The protein stability index of the first is lower: 2.2 for the first, 2.87 for the second.

Compared with FSPNSPQFNVSGPGGLEEDNQWMT [L15G], FSPNSPQFNVSGPGCLEEDNQWMT [L15C] is higher in protein stability index: 2.91 for the first, 3.04 for the second.

First: FSPNSPQFNVSGPGWLEEDNQWMT [L15W]
Second: FSPNSPQFNVSGPGRLEEDNQWMT [L15R]
The protein stability index of the first is higher: 2.68 for the first, 2.51 for the second.

Going from FSPNSPQFNVSGPGHLEEDNQWMT [L15H] to FSPNSPQFNVSGPGALEEDNQWMT [L15A], the protein stability index rises from 3.19 to 3.26.

First: FSPNSPQFNVSGPGTLEEDNQWMT [L15T]
Second: FSPNSPQFNVSGPGLLEPDNQWMT [E18P]
The protein stability index of the first is higher: 3.25 for the first, 1.84 for the second.

Compared with FSPNSPQFNVSGPGLLEYDNQWMT [E18Y], FSPNSPQFNVSGPGLLECDNQWMT [E18C] is higher in protein stability index: 1.82 for the first, 1.89 for the second.

First: FSPNSPQFNVSLPGLLEEDNQWMT [G12L]
Second: FSPNSPQFNVSSPGLLEEDNQWMT [G12S]
The protein stability index of the first is lower: 2.47 for the first, 3.13 for the second.

First: FSPNSPQFNVSHPGLLEEDNQWMT [G12H]
Second: FSPNSPQFNVSEPGLLEEDNQWMT [G12E]
The protein stability index of the first is lower: 2.62 for the first, 3.12 for the second.

Going from FSPNSPQFNVSFPGLLEEDNQWMT [G12F] to FSPNSPQFNVSPPGLLEEDNQWMT [G12P], the protein stability index rises from 2.21 to 2.86.

First: FSPNSPQFNVSCPGLLEEDNQWMT [G12C]
Second: FSPNSPQFNVSYPGLLEEDNQWMT [G12Y]
The protein stability index of the first is lower: 2.04 for the first, 2.14 for the second.

Compared with FSPNSPQFNVSQPGLLEEDNQWMT [G12Q], FSPNSPQFNVSGNGLLEEDNQWMT [P13N] is higher in protein stability index: 3.04 for the first, 3.5 for the second.

Compared with FSPNSPQFNVSGRGLLEEDNQWMT [P13R], FSPNSPQFNVSGDGLLEEDNQWMT [P13D] is higher in protein stability index: 2.79 for the first, 3.46 for the second.

Compared with FSPNSPQFNVSGEGLLEEDNQWMT [P13E], FSPNSPQFNVSGGGLLEEDNQWMT [P13G] is lower in protein stability index: 3.58 for the first, 2.89 for the second.

Going from FSPSSPQFNVSGPGLLEEDNQWMT [N4S] to FSPQSPQFNVSGPGLLEEDNQWMT [N4Q], the protein stability index falls from 2.89 to 2.8.

Compared with FSPYSPQFNVSGPGLLEEDNQWMT [N4Y], FSPCSPQFNVSGPGLLEEDNQWMT [N4C] is lower in protein stability index: 2.33 for the first, 2.26 for the second.

Going from FSPESPQFNVSGPGLLEEDNQWMT [N4E] to FSPVSPQFNVSGPGLLEEDNQWMT [N4V], the protein stability index falls from 3.59 to 3.03.

Going from FSPPSPQFNVSGPGLLEEDNQWMT [N4P] to FSPDSPQFNVSGPGLLEEDNQWMT [N4D], the protein stability index rises from 3.53 to 3.79.

Compared with FSPMSPQFNVSGPGLLEEDNQWMT [N4M], FSPNSPQFNVSGPGLLEEDMQWMT [N20M] is higher in protein stability index: 2.45 for the first, 2.54 for the second.

First: FSPNSPQFNVSGPGLLEEDHQWMT [N20H]
Second: FSPNSPQFNVSGPGLLEEDEQWMT [N20E]
The protein stability index of the first is lower: 2.62 for the first, 3.73 for the second.

Compared with FSPNSPQFNVSGPGLLEEDKQWMT [N20K], FSPNSPQFNVSGPGLLEEDRQWMT [N20R] is higher in protein stability index: 2.54 for the first, 2.88 for the second.

First: FSPNSPQFNVSGPGLLEEDVQWMT [N20V]
Second: FSPNSPQFNVSGPGLLEEDYQWMT [N20Y]
The protein stability index of the first is higher: 2.58 for the first, 2.26 for the second.

Compared with FSPNSPQFNVSGPGLLEEDCQWMT [N20C], FSPNSPQFNVSGPGLLEEDIQWMT [N20I] is lower in protein stability index: 2.63 for the first, 2.24 for the second.

Going from FSPNSPQFNVSGPGLLEEDPQWMT [N20P] to FSPNSPQFNVSGPGLLEEDTQWMT [N20T], the protein stability index falls from 3.28 to 3.19.

Going from FSPNSPQFNVSGPGLLEEDNEWMT [Q21E] to FSPNSPQFNVSGPGLLEEDNVWMT [Q21V], the protein stability index falls from 3.69 to 1.72.

Compared with FSPNSPQFNVSGPGLLEEDNLWMT [Q21L], FSPNSPQFNVSGPGLLEEDNMWMT [Q21M] is lower in protein stability index: 2.08 for the first, 1.84 for the second.

First: FSPNSPQFNVSGPGLLEEDNIWMT [Q21I]
Second: FSPNSPQFNVSGPGLLEEDNSWMT [Q21S]
The protein stability index of the first is lower: 1.95 for the first, 2.15 for the second.

First: FSPNSPQFNVSGPGLLEEDNCWMT [Q21C]
Second: FSPNSPQFNVSGPGLLEEDNRWMT [Q21R]
The protein stability index of the first is lower: 2.14 for the first, 2.28 for the second.

Going from FSPNSPQFNVSGPGLLEEDNAWMT [Q21A] to FSPNSPQFCVSGPGLLEEDNQWMT [N9C], the protein stability index falls from 2.45 to 2.13.

In the case of FSPNSPQFVVSGPGLLEEDNQWMT [N9V], the protein stability index is reported as 2.09.
